Laboratory results taken from the NTF2 design screens of Basanta et al. (2020).

Assay: protease stability score; higher = more stable; yeast display proteolysis, trypsin and chymotrypsin;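 also: log10 excess protease needed over predicted unfolded state with 0 meaning unfolded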

Going from “DDEVLDDLVRLIKDNDWEQMANNADKDVKIQIGDKTWHGREQVEEVMRRMQETIDHLDIRSVTRHNGQVKVENRIEVNGQTIIYTVVFQAHNGRLKSMRVQATSHHAEDVMRQVIN” to “DDEVLDQVKEFLKAVKTGNDQQIKRLADKDVHFKIGDDVIDGREKVTKEWKQQHREMSVDYKKVKLQKRPNRAIVTYDVHYRHNGRPQSLKVQVRFTFDNGKLQSMSVTNSQ”, the protease stability score falls from 0.792 to -0.006.

Going from “DDEVNHNFEEMLKARESGDPDRLKELFRDDVRMQVGDKQVTGREKLAEHLVENMKHSQRTIRITDIKAHNGRLEVRLKFTEEHNGRPKTAEADVKAVVHNGKFVSMHVDQKR” to “DDEVQEVAEQWMRAFNTGDPDTFKDLLDKDVRVQYGDKRLSGKKTLANELQHQKEHQRFKVQHVDIKVTGNKAEINFTLVMDVNGKPVHYTVRANLDVHNGKVKEARFTMDPNTLSKMKR”, the protease stability score rises from -0.523 to -0.24.

Going from “DDEVRKVVHEWWKALRTGDPDLAKKLADPNAEFQIGDKRVHGMKDFARKLTEEHKESEIEINIRHIDAQGDNVNVHFEFQIDRNGRPQTNTQTVHLRVNNGKITRFEMRTQS” to “DDEVVKEVNNALKTNDFKSMVDLADKNARIRVGNKTYRGREEVERFQTILHQRADHVQFRKIHVEGDTAVVDMVVVVNGHKLKYTVKIRVHNGKITSLRMQFTDESDERVMSKVLG”, the protease stability score falls from 1.16 to 0.8.

First: DDHAADVMRKWFEALSSGNPDQAKKNLDPNAKVQIGDKTLHGREQVSQHVREQKEEIRFEIQSVDVRKEPGQVTVTMVYVSHFNGQPRRDTDTFFADVHGDKIKSVHIRVDEKQKQRERD
Second: DDHAERQARQVQTALKTGDPNQMERMFDENAEVVYGDKRIHGEHEASRVAKRIKEEMRVEYDVRRVTDNEDHVKFHAIIVIDENGKPRTKQLDLTMQQENGKVRLVSFRQDR
The protease stability score of the first is lower: -0.495 for the first, -0.048 for the second.

Compared with “DDHAIRLLHEMIKAERTNDPDKLKEQMDPNAKIKYGDKTVHGRNDAVRYLEETVEHARVSIQVKSIKDQGDQAIADATITVNINGRPQQFKITIVAKFHNGRIKEVEIRVSEEQERQMES”, “DDHALERLRSLNHIEDDGNEEKVEEMLDPNATVEVGDKRYHGSHHYVDHVRQRKEKQRYSQQFKHFHREPGRIVVHATAKFQVNGKPFKYTLTQVARLSNGKFTDIKVDVPERLKEQRQQ” is lower in protease stability score: 0.785 for the first, -0.258 for the second.

Compared with “DDHALRLVEEFLRAMRTGDEDKLKELVDPNARVTVGDHVWHGMESAAREWKRLKDEMRIKIDLQHVDDHGNSANAKASLAFRVNGKPQQNHMKMEVIFENGRIQSIVLRFSNEVEHNIKR”, “DDHAMRKFHELLKAIETGDEKKITDLADKHARFEYGDTEVHGRHKYAKEATDRRREMRIEIKDMKTRVDENHVQINNNYQVQVNGEPHTYTVQVVVRMDNGRLKQVQIRVSEEIRDRNKT” is lower in protease stability score: 1.28 for the first, -0.166 for the second.

Going from “DDHANRVVEDVMQAWQDNDEDRLKELLDPNVKVEYGDRRVEGRDEAVREWVEQFRQSTIEYEIKSVNNSGDKVQINMDMRFESNGHPDENRVRLEASAHNGKIRELNFHTDQ” to “DDHAQRHLKELLKVINTGDEEEVEHMADPNARIQVGDKVFHGMRSYVDDIRRKKEELNVEYNVRRMDADGNRVEANVDVVFNHNGKPDRRTVDMKATIRNGKIKSMHWQENP”, the protease stability score falls from 0.589 to -0.227.

First: DDHAVRLLNDIVRALNSGDEQKVADNADPNVRIEYGDSVITGRERLMEEIQKRRKELRFEVQVDRVREKPNHVVADVQLHFNVNGQPRNMKVEVRATWTNGKLKHMHIKMDEEQVRQLKR
Second: DDHAVRMAKTYQKAIQHNDPDKMVDLVDPNAKIHIGDKDIQGREELRRWVKHRIDDINIIIERVSATDKGDKAIVTVDLVENENGRPHNVRFEVTFDFKNGRAQRVTVQESR
The protease stability score of the first is higher: 1.1 for the first, -0.088 for the second.

Going from “DDHAVSFVEEMLRIEKTGNHQQLENKADPNAEAEYGDKTYHGMEDFARELVRQLREWRLDYKSIDVQAHNGRAEVDVDVLVDIDGEPVRFRVTIVFQQHNGRLKNQSMRMSTDQLRKQQR” to “DDHDAKRAAKHVENGDPEQITNLFDEDARVHIGDFRIHGREDAKKWADHYRDQVDHLEYEDYRISGDTVVIVFQINVNGKRVRLRLEFRVHNGRIKEMTVEFTSEDDEKRVLKIMS”, the protease stability score rises from 0.121 to 0.531.

Compared with “DDHDRLRKFFETLLKNYQHNNEEHATKMADKDARFDVGDKTVNGNKQNAKEMAERVRESDHYHAKIQSYRVEGDKAHFQFVASVVHNGRERHFKVQMELKLHNGSLKIVRLRNS”, “DDHDRQKLSEWYKNYESGDPDKLVDMADPNARFQYGDKHVRGREQIHRQWRKELTEQRFTVVKMSASDHNGVIDMKFTNEVEHNGRPDRRKFSFTFRVRNGQAQEFDLQTTK” is lower in protease stability score: 0.966 for the first, 0.014 for the second.

First: DDHEEASELIRDLNEAWKEGDPDRASKNFDPNARIEVGDRTFRGQEQVKRMADELKEKYDEFTVDIKRLSLHNGSITVNARVVYHNNGRRHDRTYVVILHKHNGRIKIKNMHEQ
Second: DDHEKANKVVSKLVEANRTGDEKKFVDMADPNVQLNIGDQRVHGREQAEKFARDFHTRFDHLDVKIKDVDVQGEKLELDVKMKVHFDGRTHEINMRLELQRNNGRVKLVRLHIP
The protease stability score of the first is higher: 0.331 for the first, 0.097 for the second.

First: DDHEQRSLQELVKKNDEEKFAEQADKDVKVDVGDSRIHGREEWRKFVKRLKDRADHIEIHSVKADGEKLEVHREMTVDGRRVVYYVRYEVHNGRIKSISLQARTEDDQRKLQHVLS
Second: DDHETAKQIMETWKQIVEDGDEHQAQRMADPNVHANIGDHTVHGKEEFKKMLRTWRDRVDRIEVTFRHIEVTGNKLIVVVDVRLDVNGKEIHVHMVLNAQKQGDEAKVETVVVE
The protease stability score of the first is lower: 0.919 for the first, 1.24 for the second.

Compared with “DDHEVAKQNMRDLLTILNTGDPDKAEEMADKDVKIDVGDKRYHGQTKMREWIEELRKRYDHIHADVKSVEVHNGQVRADIEMVFNHNGREETVKVDVKAELDGDKVKIENLVLR”, “DDHKAQRAVDIAKNWLTGNEEELQKQASEEVRFDYGDKTVHGMTEARTQAKRFHERMRADAKVHSFDVTGDKAVVNMVFEQEHNGRPTNRRYRVILDLHNGKVKEVQIDDDG” is lower in protease stability score: 1.3 for the first, -0.069 for the second.

Going from “DDHKLAEDIIQEFHEAMERGDPDQIQKLADKDVTINYGDKRIRGRETATRFWREVMDRIDHVEVTIRELRVKGDKIQFVVLINQNHNGQTTNRHVEASVEVHGDKYRNKSFQFQ” to “DDHKNRERAKEIAKQFQHNNPEDLRKMFDKDARLDLGSQQYHGREDVNRALSHLSKRIDHYEIKDIKVKGDNIDIQAVVTVNGRRYSLKIILRFSNGKAKEVHFHVS”, the protease stability score rises from 0.35 to 0.997.

Going from “DDHKVEHVNRLFETNNPDKLAKNVDPNADNQVGDKRYHGRQKIHTFLKNMYTRVDHVDIHRISVNGNRLQIDATYDIDGRRFYADMRFRLHNGRIKEVRVRFTNEEQDKVVKEAVK” to “DDHLRQVMEELKKAEDTGNPDRYVELADEDVEVHVGDTTLKGRTQHREEIKTQKDQSRLSINIQHVDVDGDKVRVQFVFENDHNGKPSTDRQQFVVRAHNGRVKRIENEERR”, the protease stability score falls from 0.985 to -0.114.

Compared with “DDHLRREAKKMVKNYVKGDPDKVMEYVDPNATVNVGDKNIRGRESVREWVKTQKDQMRIQLTSMRVDASNGRVKISLDFRLNDNGKPDRVTVDIKLNMRNGRVQHVNIQTHK”, “DDHNARSALTIAFTAIRQGDEQKIRELMDKHVDVHVGDEVVHGRDQVATRLRKLKERVDHIQVKSMSVQGDTLDLNIIFRINGKDLEIKFDIRFRNGRVESMTVRVTDEKKYKDIHQ” is higher in protease stability score: 0.279 for the first, 0.475 for the second.

Compared with “DDHNIQRLKQFLDDWERGDPDKLKDLVDPNVEFRIGEREVHGMDHWATQLTEERRDQRFQLKDMRVQERPGRVEVRLDYEQDHNGKPERQIVKFVAQATNGELKWVNWTRDS”, “DDHNRAENFLKEVMRAMKNNDPQTLKELADPNVTVEVGDKEIHGQEEFHKWAETLNHNVDSLDIQFKEIRLRPGRAEAIVLITEDHNGRKDRKELNMVARVKGDDIHVVSMHQK” is higher in protease stability score: -0.017 for the first, 0.828 for the second.

Compared with “DDHNVRLAKKFREAYETGDEETVKSMADPNAHYHVGDKRITGRERQVRKMTRERRDMRVQVESIRYSNRNGRVDVKIVEVRNDNGHPKRMRIVLHVNFQNGKAKEFQIEDQE”, “DDHNVRVMREIQKAIEKNDEKRFKELVDPNVRVRIGDNLIHGRDNVAKELKREMDHMRKNIRSMSIDDEGDHVVINIEYEQNENGHPDTNRVQVSAELHNGKLKEMHISSRQ” is higher in protease stability score: 0.226 for the first, 1.02 for the second.
